# Reference: article PMC6405930, “Conservation of the Amyloid Interactome Across Diverse Fibrillar Structures” (Scientific Reports, 2019)
# Legend:
# glucagon fibrils [1] = molecular target: T1, glucagon fibrils (Homo sapiens, UniProt P01275); test: Fibril incubation with CSF, quantitative MS/MS of bound proteins; type: binding; conditions: 4:1 w/w CSF protein:fibril
# T1 construct: fibrils of the peptide hormone glucagon
# C-36 fibrils [2] = molecular target: T2, C-36 fibrils (Homo sapiens, UniProt P01009); test: as above; type: binding; set-up: key to Identification status of CSF protein bound: C-36: *: Identified, but not quantified; —: Not identified in any of the samples; conditions: for Identification status of CSF protein bound: C-36: symbol cells
# T2 construct: the 36 residue C-terminal fragment of α1-antitrypsin (C-36)
# T2 sequence (P01009 383-418 limits assumed): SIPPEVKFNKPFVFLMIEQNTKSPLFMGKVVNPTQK
# FAS4-AD aggregates [3] = tested on: T3, FAS4-AD aggregates; test: as above; type: binding, human; set-up: key to Identification status of CSF protein bound: FAS4-AD: *: Identified, but not quantified; —: Not identified in any of the samples; conditions: symbol cells
# T3 construct: aggregates of a mutated version of the FAS1-4 domain of TGFBIp
# C-36 fibrils [4] = molecular target: T2, C-36 fibrils; test: Fibril incubation with plasma, quantitative MS/MS of bound proteins; type: binding; set-up: key to Identification status of plasma protein bound: C-36: *: Identified, but not quantified; —: Not identified in any of the samples; conditions: for Identification status of plasma protein bound: C-36: symbol cells
# Procedure: (§1) Plasma and CSF solutions were centrifuged (40,000 g, 20 min) to remove any aggregates. The protein concentration was determined using 280 nm absorbance assuming 1 Abs = 1 mg/mL. […] Control samples (without fibril material) were prepared similarly. All samples were incubated at room temperature for one hour under gentle agitation. Fibrils and fibril-bound proteins were pelleted by centrifugation at 17,000 g for 30 minutes. The supernatant (175 μL) was removed and the aggregate was re-suspended in 175 μL PBS and pelleted again before further preparation for gel analysis and spin-filter assisted digest for quantitative MS/MS.
# (§2) The fibril-protein pellets were transferred to spin-filters (0.22 μm), washed twice in PBS (100 μL) and once in 1 M NaCl (100 μL). The fibrils and fibril-bound proteins were dissolved by one-hour incubation in 100 μL 6 M guanidinium chloride followed by elution from the spin-filter. The eluted proteins were loaded onto a 3 kDa MWCO filter unit for filter-assisted unfolding, reduction, alkylation, and trypsin digestion. In brief, samples were washed twice in 8 M urea, once in 8 M urea with 50 mM DTT, once in 8 M urea with 50 mM iodoaceteamide, and twice in 8 M Urea. The filter units were dried by centrifugation (14,000 g in 30 minutes) after every addition. Trypsin digestion was carried out with 0.25 μg sequencing grade trypsin from Sigma Aldrich in 50 mM ammonium bicarbonate overnight at 37 °C. The tryptic peptides were collected by centrifugation, acidified with TFA (0.1%) and micro-purified using POROS R2 column material (Applied Biosystems) packed in P200 pipette tips (Sarstedt).
# (§3) LC-MS/MS analyses were performed on an EASY-nLC II system (Thermo Fisher Scientific) connected to a TripleTOF 5600+ mass spectrometer (Sciex) equipped with a NanoSpray III source (Sciex) and operated under Analyst TF 1.6.0 control.
# (§4) The micro-purified tryptic peptides were dissolved in 0.1% formic acid, injected and trapped on an in-house packed trap column (2 cm × 100 μm I.D) with RP ReproSil-Pur C18-AQ 3 μm resin (Dr. Maisch GmbH). Peptides were eluted from the trap column and separated on a 15 cm analytical column (75 μm i.d.) packed in-house in a pulled emitter with RP ReproSil-Pur C18-AQ 3 μm resin (Dr. Maisch GmbH). Elution from the analytical column was performed with a linear gradient from 5% to 35% phase B (90% acetonitrile with 0.1% formic acid) over 20 min for protein identification and 50 min for quantitative analysis, respectively.
# (§5) All samples were analysed three times, yielding nine MS/MS experiments for each fibril for both plasma and CSF. For the area-based extracted ion chromatogram (XIC) quantification, the acquisition method was set up as an information-dependent acquisition (IDA) experiment collecting up to 25 MS/MS spectra in each 1.6 sec cycle using an exclusion window of 6 sec.
# (§6) XIC quantification was based on the average ion intensity of the three most abundant peptides for each protein. Only proteins quantified in at least four out of nine MS/MS experiments per fibril were included in the quantification. The total ion scores were visualized after grouping the proteins according to function (Figure S11).
# (§7) For each MS/MS experiment, the ion intensities of the individual proteins were normalized to the total ion intensity of that MS/MS experiment to achieve a relative protein composition. The contribution of each protein was averaged over all nine MS/MS experiments (Tables 1 and 2).
# glucagon fibrils [5] = molecular target: T1, glucagon fibrils; test: as above; type: binding; conditions: 50:1 w/w plasma protein:fibril
# Procedure: as §1, §2, §3, §4, §5, §6, §7
# Ab2 fibrils [6] = tested on: T4, Ab2 fibrils; test: as above; type: binding, human; conditions: 50:1 w/w plasma protein:fibril
# T4 construct: Two structurally distinct fibrils of the Aβ(1–40) peptide associated with AD
# Procedure: as §1, §2, §3, §4, §5, §6, §7
# Ab1 fibrils [7] = tested on: T5, Ab1 fibrils; test: Fibril incubation with CSF, quantitative MS/MS of bound proteins; type: binding, human; conditions: 4:1 w/w CSF protein:fibril
# T5 construct: Synthetic amyloid β peptide 1–40 was purchased from Caslo Aps (Lyngby, Denmark); purchased Caslo Aps (Lyngby, Denmark); host or cells: synthetic peptide
# FAS4-AD aggregates [8] = tested on: T3, FAS4-AD aggregates; test: Fibril incubation with plasma, quantitative MS/MS of bound proteins; type: binding, human; set-up: key to Identification status of plasma protein bound: FAS4-AD: *: Identified, but not quantified; —: Not identified in any of the samples; conditions: for Identification status of plasma protein bound: FAS4-AD: symbol cells
# Procedure: as §1, §2, §3, §4, §5, §6, §7
# Ab1 fibrils [9] = tested on: T5, Ab1 fibrils; test: as above; type: binding, human; conditions: 50:1 w/w plasma protein:fibril
# Procedure: Plasma and CSF solutions were centrifuged (40,000 g, 20 min) to remove any aggregates. The protein concentration was determined using 280 nm absorbance assuming 1 Abs = 1 mg/mL. […] Control samples (without fibril material) were prepared similarly. All samples were incubated at room temperature for one hour under gentle agitation. Fibrils and fibril-bound proteins were pelleted by centrifugation at 17,000 g for 30 minutes. The supernatant (175 μL) was removed and the aggregate was re-suspended in 175 μL PBS and pelleted again before further preparation for gel analysis and spin-filter assisted digest for quantitative MS/MS.
# as §2, §3, §4, §5, §6, §7
# αSN fibrils [10] = molecular target: T6, αSN fibrils (Homo sapiens, UniProt P37840); test: as above; type: binding; set-up: key to Identification status of plasma protein bound: αSN: *: Identified, but not quantified; —: Not identified in any of the samples; conditions: for Identification status of plasma protein bound: αSN: symbol cells
# Procedure: as §1, §2, §3, §4, §5, §6, §7
# Ab2 fibrils [11] = tested on: T4, Ab2 fibrils; test: Fibril incubation with CSF, quantitative MS/MS of bound proteins; type: binding, human; conditions: 4:1 w/w CSF protein:fibril
# αSN fibrils [12] = molecular target: T6, αSN fibrils; test: as above; type: binding; set-up: key to Identification status of CSF protein bound: αSN: *: Identified, but not quantified; —: Not identified in any of the samples; conditions: for Identification status of CSF protein bound: αSN: symbol cells
# T1 sequence (P01275 53-81 limits assumed): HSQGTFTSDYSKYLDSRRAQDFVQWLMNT
Molecule,Relative composition of CSF proteins bound: Glucagon (glucagon fibrils [1]),Relative composition of CSF proteins bound: C-36 (C-36 fibrils [2]; 4:1 w/w CSF protein:fibril),Identification status of CSF protein bound: FAS4-AD (FAS4-AD aggregates [3]),Relative composition of plasma proteins bound: C-36 (C-36 fibrils [4]; 50:1 w/w plasma protein:fibril),Relative composition of plasma proteins bound: Glucagon (glucagon fibrils [5]),Relative composition of plasma proteins bound: Ab2 (Ab2 fibrils [6]),Relative composition of CSF proteins bound: Ab1 (Ab1 fibrils [7]),Relative composition of plasma proteins bound: FAS4-AD (FAS4-AD aggregates [8]; 50:1 w/w plasma protein:fibril),Relative composition of plasma proteins bound: Ab1 (Ab1 fibrils [9]),Relative composition of plasma proteins bound: αSN (αSN fibrils [10]; 50:1 w/w plasma protein:fibril),Relative composition of CSF proteins bound: Ab2 (Ab2 fibrils [11]),Relative composition of CSF proteins bound: αSN (αSN fibrils [12]; 4:1 w/w CSF protein:fibril),Identification status of CSF protein bound: C-36 (C-36 fibrils [2]),Identification status of plasma protein bound: C-36 (C-36 fibrils [4]),Identification status of plasma protein bound: FAS4-AD (FAS4-AD aggregates [8]),Identification status of plasma protein bound: αSN (αSN fibrils [10]),Identification status of CSF protein bound: αSN (αSN fibrils [12])
"Apolipoprotein A-IV: plasma/CSF protein bound to fibrils (protein, UniProt P06727 21-396, looked up) Apolipoprotein A-IV: EVSADQVATVMWDYFSQLSNNAKEAVEHLQKSELTQQLNALFQDKLGEVNTYAGDLQKKLVPFATELHERLAKDSEKLKEEIGKELEELRARLLPHANEVSQKIGDNLRELQQRLEPYADQLRTQVSTQAEQLRRQLTPYAQRMERVLRENADSLQASLRPHADELKAKIDQNVEELKGRLTPYADEFKVKIDQTVEELRRSLAPYAQDTQEKLNHQLEGLTFQMKKNAEELKARISASAEELRQRLAPLAEDVRGNLRGNTEGLQKSLAELGGHLDQQVEEFRRRVEPYGENFNKALVQQMEQLRQKLGPHAGDVEGHLSFLEKDLRDKVNSFFSTFKEKESQDKTLSLPELEQQQEQQQEQQQEQVQMLAPLES",0.5 ± 0.1 % of total protein,1.0 ± 0.1 % of total protein,—,2.4 ± 0.4 % of total protein,1.9 ± 0.2 % of total protein,3.5 ± 0.5 % of total protein,1.2 ± 0.1 % of total protein,1.6 ± 0.2 % of total protein,2.7 ± 0.1 % of total protein,3.8 ± 0.6 % of total protein,0.5 ± 0.0 % of total protein,1.5 ± 0.2 % of total protein,,,,,
"Histidine-rich glycoprotein (protein, UniProt P04196 19-525, looked up) Histidine-rich glycoprotein: VSPTDCSAVEPEAEKALDLINKRRRDGYLFQLLRIADAHLDRVENTTVYYLVLDVQESDCSVLSRKYWNDCEPPDSRRPSEIVIGQCKVIATRHSHESQDLRVIDFNCTTSSVSSALANTKDSPVLIDFFEDTERYRKQANKALEKYKEENDDFASFRVDRIERVARVRGGEGTGYFVDFSVRNCPRHHFPRHPNVFGFCRADLFYDVEALDLESPKNLVINCEVFDPQEHENINGVPPHLGHPFHWGGHERSSTTKPPFKPHGSRDHHHPHKPHEHGPPPPPDERDHSHGPPLPQGPPPLLPMSCSSCQHATFGTNGAQRHSHNNNSSDLHPHKHHSHEQHPHGHHPHAHHPHEHDTHRQHPHGHHPHGHHPHGHHPHGHHPHGHHPHCHDFQDYGPCDPPPHNQGHCCHGHGPPPGHLRRRGPGKGPRPFHCRQIGSVYRLPPLRKGEVLPLPEANFPSFPLPHHKHPLKPDNQPFPQSVSESCPGKFKSGFPQVSMFFTHTFPK",0.1 ± 0.0 % of total protein,,—,,0.4 ± 0.0 % of total protein,1.8 ± 0.1 % of total protein,0.4 ± 0.1 % of total protein,,2.5 ± 0.1 % of total protein,,0.6 ± 0.2 % of total protein,,*,—,—,—,—
"Ig γ -3 chain C region: plasma/CSF protein bound to fibrils (protein, UniProt P01860 1-446, looked up) Immunoglobulin heavy constant …: ASTKGPSVFPLAPCSRSTSGGTAALGCLVKDYFPEPVTVSWNSGALTSGVHTFPAVLQSSGLYSLSSVVTVPSSSLGTQTYTCNVNHKPSNTKVDKRVELKTPLGDTTHTCPRCPEPKSCDTPPPCPRCPEPKSCDTPPPCPRCPEPKSCDTPPPCPRCPAPELLGGPSVFLFPPKPKDTLMISRTPEVTCVVVDVSHEDPEVQFKWYVDGVEVHNAKTKPREEQYNSTFRVVSVLTVLHQDWLNGKEYKCKVSNKALPAPIEKTISKTKGQPREPQVYTLPPSREEMTKNQVSLTCLVKGFYPSDIAVEWESSGQPENNYNTTPPMLDSDGSFFLYSKLTVDKSRWQQGNIFSCSVMHEALHNRFTQKSLSLSPELQLEESCAEAQDGELDGLWTTITIFITLFLLSVCYSATVTFFKVKWIFSSVVDLKQTIIPDYRNMIGQGA",1.4 ± 0.5 % of total protein,,—,,1.0 ± 0.1 % of total protein,1.1 ± 0.1 % of total protein,2.5 ± 0.1 % of total protein,,1.0 ± 0.1 % of total protein,,3.0 ± 0.2 % of total protein,,*,*,—,*,*
